The target of test [1] is serum sample IHUS#B09032311A1. Put plainly: ECL displacement assay, variant competes with tagged SEQ ID NO:1.
Test [2] has as its target serum sample IHUS#B09032311A20. The test is described as above.
The target in test [3] is serum sample IHUS#B09032311A3. The test is described as above.
Test [4] concerns the target affinity purified antibody IHuP#002-001-ABL-08. Kind of test: ECL bridging/competition assay, 10 ug/ml ISV vs tagged ISV.
Test [5] has as its target analytical polyclonal antibody obtained in Example 2. Put plainly: SPR Biacore T100, immobilized polyclonal, 500 nM ISV. On the technique in general: SPR reads the build-up and loss of mass on a sensor chip optically.

B1: Example 1C: wildtype VHH (SEQ ID NO: 23) (VHH)
VHH: EVQLVESGGGLVQAGGSLRLSCAASGRTFNNYAMGWFRRAPGKEREFVAAITRSGVRSGVSAIYGDSVKDRFTISRDNAKNTLYLQMNSLKPEDTAVYTCAASAIGSGALRRFEYDYSGQGTQVTVSS
Consider B1, for which the % reduction turned out to be 4% in test [1], 53% in test [2], 20% in test [3] and 7.3% in test [4]. Also, the ECLU confirmatory assay in test [1] amounted to 60 ECLU; in test [2], 8680 ECLU; in test [3], 1780 ECLU; in test [4], 2710 ECLU.

B2: Example 1C: (A14P) (SEQ ID NO: 24) (VHH)
VHH: EVQLVESGGGLVQPGGSLRLSCAASGRTFNNYAMGWFRRAPGKEREFVAAITRSGVRSGVSAIYGDSVKDRFTISRDNAKNTLYLQMNSLKPEDTAVYTCAASAIGSGALRRFEYDYSGQGTQVTVSS
Regarding B2, the % reduction in test [1] worked out at 10%; in test [2], 96%; in test [3], 91%; in test [4], 90.8%. Moreover, the ECLU confirmatory assay in test [1] turned out to be 56 ECLU; in test [2] it was 668 ECLU; in test [3], 205 ECLU; in test [4] it was 268 ECLU.

B3: Example 1C: (Q108L) (SEQ ID NO: 26) (VHH)
VHH: EVQLVESGGGLVQAGGSLRLSCAASGRTFNNYAMGWFRRAPGKEREFVAAITRSGVRSGVSAIYGDSVKDRFTISRDNAKNTLYLQMNSLKPEDTAVYTCAASAIGSGALRRFEYDYSGQGTLVTVSS
For B3, the % reduction in test [1] stood at 5%; in test [2], 62%; in test [3], 31%; in test [4] it was 13.2%. In addition, the ECLU confirmatory assay in test [1] was 59 ECLU; in test [2], 6990 ECLU; in test [3] it was 1530 ECLU; in test [4] it was 2530 ECLU.

B4: Example 1C: (K83R) (SEQ ID NO: 25) (VHH)
VHH: EVQLVESGGGLVQAGGSLRLSCAASGRTFNNYAMGWFRRAPGKEREFVAAITRSGVRSGVSAIYGDSVKDRFTISRDNAKNTLYLQMNSLRPEDTAVYTCAASAIGSGALRRFEYDYSGQGTQVTVSS
On to B4, for which the % reduction in test [1] amounted to 1%; in test [2], 63%; in test [3], 37%; in test [4] it was 15.7%. Moreover, the ECLU confirmatory assay in test [1] came to 62 ECLU; in test [2], 6910 ECLU; in test [3] it was 1400 ECLU; in test [4], 2460 ECLU.

B5: Example 1C: (A14P, R39Q, K83R, T91Y, Q108L) (SEQ ID NO: 28) (VHH)
VHH: EVQLVESGGGLVQPGGSLRLSCAASGRTFNNYAMGWFRQAPGKEREFVAAITRSGVRSGVSAIYGDSVKDRFTISRDNAKNTLYLQMNSLRPEDTAVYYCAASAIGSGALRRFEYDYSGQGTLVTVSS
With B5, the % reduction in test [1] was 6%; in test [2], 97%; in test [3], 90%; in test [4], 91.4%. Also, the ECLU confirmatory assay was 58 ECLU in test [1], 570 ECLU in test [2], 228 ECLU in test [3] and 251 ECLU in test [4].

B6: Example 1C: (A14P, K83R, Q108L) (SEQ ID NO: 27) (VHH)
VHH: EVQLVESGGGLVQPGGSLRLSCAASGRTFNNYAMGWFRRAPGKEREFVAAITRSGVRSGVSAIYGDSVKDRFTISRDNAKNTLYLQMNSLRPEDTAVYTCAASAIGSGALRRFEYDYSGQGTLVTVSS
Regarding B6, the % reduction is 8% in test [1], 97% in test [2], 93% in test [3] and 89.1% in test [4]. Besides, the ECLU confirmatory assay in test [1] turned out to be 57 ECLU; in test [2], 628 ECLU; in test [3], 156 ECLU; in test [4], 319 ECLU.

B7: Nb3.10 (VHH)
VHH: EVQLVESGGGLVQAGGSLRLSCAASRSIGRLDRMGWYRHRPGEPRELVATITGGSSINYGDSVKGRFTISIDNSKNTVYLQMNSLRPEDTAVYYCNFNKYVTSRDTWGQGTLVTVSS
For B7, the Binding (RU) in test [5] is 91 RU.

B8: Nb3.1 (VHH)
VHH: EVQLVESGGGLVQAGGSLRLSCAASRSIGRLDRMGWYRHRTGEPRELVATITGGSSINYGDFVKGRFTISIDNAKNTVYLQMNNLKPEDTAVYYCNFNKYVTSRDTWGQGTQVTVSS
Molecule B8 displayed a Binding (RU) in test [5] of 2 RU.

B9: Nb3.11 (VHH)
VHH: EVQLVESGGGLVQPGGSLRLSCAASRSIGRLDRMGWYRHRPGEPRELVATITGGSSINYGDSVKGRFTISIDNSKNTVYLQMNSLKPEDTAVYYCNFNKYVTSRDTWGQGTLVTVSS
On to B9, for which the Binding (RU) in test [5] was found to be 88 RU.

B10: Nb3.15 (VHH)
VHH: EVQLVESGGGSVQPGGSLRLSCAASRSIGRLDRMGWYRHRPGEPRELVATITGGSSINYGDSVKGRFTISIDNSKNTVYLQMNSLRPEDTAVYYCNFNKYVTSRDTWGQGTLVTVSS
Consider B10, for which, in test [5], the Binding (RU) stood at 22 RU.

B11: Nb3.13 (VHH)
VHH: EVQLVESGGGLVQPGGSLRLSCAASRSIGRLDRMGWYRHRPGEPRELVATITGGSSINYGDSVKGRFTISIDNSKNTVYLQMNSLRPEDTAVYYCNFNKYVTSRDTWGQGTQVTVSS
As for B11, in test [5], the Binding (RU) turned out to be 90 RU.

B12: Nb3.12 (VHH)
VHH: EVQLVESGGGLVQAGGSLRLSCAASRSIGRLDRMGWYRHRPGEPRELVATITGGSSINYGDSVKGRFTISIDNSKNTVYLQMNSLRPEDTAVYYCNFNKYVTSRDTWGQGTQVTVSS
Turning to B12, the Binding (RU) in test [5] was found to be 86 RU.

B13: Nb3.14 (VHH)
VHH: EVQLVESGGGLVQPGGSLRLSCAASRSIGRLDRMGWYRHRPGEPRELVATITGGSSINYGDSVKGRFTISIDNSKNTVYLQMNSLRPEDTAVYYCNFNKYVTSRDTWGQGTLVQVSS
In test [5], B13 came in with a Binding (RU) of 79 RU.

B14: Nb4.1 (VHH)
VHH: EVQLVESGGGLVQPGGSLRLSCAASGSVFKINVMAWYRQAPGKGRELVAGIISGGSTSYADSVKGRFTISRDNAKNTLYLQMNSLRPEDTAVYYCAFITTESDYDLGRRYWGQGTLVTVSS
For B14, in test [5], the Binding (RU) was determined as 51 RU.

B15: Nb6.2 (VHH)
VHH: EVQLVESGGGLVQPGGSLRLSCIASGLPFSTKSMGWFRQAPGKEREFVARISPGGTSRYYGDFVKGRFAISRDNAKNTTWLQMNSLKAEDTAVYYCASGERSTYIGSNYYRTNEYDYWGTGTQVTVSS
B15 returned a Binding (RU) in test [5] of 39 RU.

B16: Nb6.5 (VHH)
VHH: EVQLLESGGGLVQPGGSLRLSCAASGLPFSTKSMGWFRQAPGKGREFVSRISPGGTSRYYGDFVKGRFTISRDNSKNTLYLQMNSLRAEDTAVYYCASGERSTYIGSNYYRTNEYDYWGQGTLVTVSS
B16 showed a Binding (RU) in test [5] of 66 RU.

The record behind these values is US20140205597A1.
